Assay results taken from article PMC4125095, “Arabidopsis miR171-Targeted Scarecrow-Like Proteins Bind to GT cis-Elements and Mediate Gibberellin-Regulated Chlorophyll Biosynthesis under Light Conditions”.

What was measured:
[1] = molecular target: T1, SCL27 (His-SCL27) (Arabidopsis thaliana) (UniProt Q7XJM8); experiment: EMSA; settings: 1 nM Cy5-DNA, 20 uL binding buffer (composition not given, ref 60), 30 C 20 min; 6% native PAGE, 0.5x TBE, 4 C
T1 sequence: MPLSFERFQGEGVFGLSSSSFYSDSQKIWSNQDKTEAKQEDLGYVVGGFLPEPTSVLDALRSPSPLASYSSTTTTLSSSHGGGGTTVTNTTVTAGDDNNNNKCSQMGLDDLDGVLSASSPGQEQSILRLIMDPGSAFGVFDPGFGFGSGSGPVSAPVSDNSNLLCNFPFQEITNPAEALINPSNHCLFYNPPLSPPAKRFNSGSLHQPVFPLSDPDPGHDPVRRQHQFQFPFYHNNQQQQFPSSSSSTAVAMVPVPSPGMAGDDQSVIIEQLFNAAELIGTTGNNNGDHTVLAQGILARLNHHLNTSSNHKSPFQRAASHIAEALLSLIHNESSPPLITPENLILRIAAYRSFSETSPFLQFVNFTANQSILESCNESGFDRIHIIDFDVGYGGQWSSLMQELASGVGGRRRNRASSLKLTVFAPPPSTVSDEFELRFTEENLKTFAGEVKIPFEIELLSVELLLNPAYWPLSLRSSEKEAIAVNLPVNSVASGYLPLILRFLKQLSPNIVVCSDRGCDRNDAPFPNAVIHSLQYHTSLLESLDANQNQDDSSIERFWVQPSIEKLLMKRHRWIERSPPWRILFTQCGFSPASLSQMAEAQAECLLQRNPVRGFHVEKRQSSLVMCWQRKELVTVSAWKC

[2] = molecular target: T2, SCL27 (His-SCL27) (Arabidopsis thaliana, UniProt Q7XJM8 1-640); experiment: EMSA; 1 nM probe; 1 nM Cy5-DNA, 20 uL binding buffer (composition not given, ref 60), 30 C 20 min; 6% native PAGE, 0.5x TBE, 4 C; settings: protein: recombinant, tags: His (pET28b)
T2 sequence: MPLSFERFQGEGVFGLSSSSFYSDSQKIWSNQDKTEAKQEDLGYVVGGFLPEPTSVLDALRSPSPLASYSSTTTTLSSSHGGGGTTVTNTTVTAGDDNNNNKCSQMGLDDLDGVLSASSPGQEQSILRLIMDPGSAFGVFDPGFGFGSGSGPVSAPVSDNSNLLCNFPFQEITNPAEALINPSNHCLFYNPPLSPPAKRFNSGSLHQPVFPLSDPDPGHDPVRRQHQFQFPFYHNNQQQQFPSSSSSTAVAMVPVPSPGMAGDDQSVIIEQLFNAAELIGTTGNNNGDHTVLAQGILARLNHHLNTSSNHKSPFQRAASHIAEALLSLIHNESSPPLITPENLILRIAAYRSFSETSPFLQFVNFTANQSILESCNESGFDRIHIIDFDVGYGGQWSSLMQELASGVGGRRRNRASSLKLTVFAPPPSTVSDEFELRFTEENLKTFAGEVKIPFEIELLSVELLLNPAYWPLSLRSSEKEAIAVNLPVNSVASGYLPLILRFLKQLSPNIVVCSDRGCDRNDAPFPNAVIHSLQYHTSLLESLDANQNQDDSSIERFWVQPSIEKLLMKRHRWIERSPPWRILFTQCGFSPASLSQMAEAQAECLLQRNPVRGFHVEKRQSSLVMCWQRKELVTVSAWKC

Molecule	binding [1]	further results
AGCCAGTGGCGATAAGCCTGTTATAGGCATATGAACAAGACAATGGAGGAGGAGGAGGAGATGGTCTAGAAACCGTGACGACGGAGGAGGAAAAGAAAAGAGATGAAGTAGAAGAAGAAAATAAAATAAAATAGAGGCAAAAATGGAAATTTTCATTGGAATTTTGCAACTTTTAGAAATTGTAGAAGATGAAGAGAGCTGTGTGATCCAAAAGTGCTTATCGCCACTGGCT (double strand) [PORC promoter fragment III]	binds	–
AGCCAGTGGCGATAAGGATTAAAGAAACGGGTGGAATACACAAGAACAATGTATATGCAAGATTGCAGTGGTGTCGTTGATTACTCTCAATTTGATGATAAGATTCAAATTTGATATGAGTTTGGAGAAGAAGAAGATGACGAAGAGATCATTACTTGGCGATGAGACGAACAAGCAGGAAAGTATTGCCTACGCTTCCTGAACTTCATGAGATGCTTATCGCCACTGGCT (double strand) [PORC promoter fragment I]	no binding	–
W (62-bp GT element fragment) (dsDNA) DNA 1: GGAAAAGAAAAGAGATGAAGTAGAAGAAGAAAATAAAATAAAATAGAGGCAAAAATGGAAAT DNA 2: ATTTCCATTTTTGCCTCTATTTTATTTTATTTTCTTCTTCTACTTCATCTCTTTTCTTTTCC	–	binding result ([2]; three G(A/G)(A/T)AA(A/T) GT elements, mutant): binds
M (62-bp mutated GT element fragment) (dsDNA) DNA 1: CCCGGGGAAAAGAGATGAAGTAGAAGAACCCGGGAAAATAAAATAGAGGCAAAAATCCCGGG DNA 2: CCCGGGATTTTTGCCTCTATTTTATTTTCCCGGGTTCTTCTACTTCATCTCTTTTCCCCGGG	–	binding result [2]: no binding
